# Results taken from patent US9657061B2, “Hydrochloride salt of peptide and its use in combination with other peptides for immunotherapy” (Circassia Limited, priority 2012, dated 2017).
# Where no end group is shown, it is not given here.
# Columns and labels:
# [1] = Stability of salts of MLA01 on storage: purity by HPLC; type: physicochemical; settings: for course of purity over the 4 week test period (in words): −20° C., 5° C., 25° C./60% RH, 40° C./75% RH
# Protocol: (§1) The stability of MLA01 trifluoroacetate, MLA01 acetate and MLA01 hydrochloride when stored in an inert container over a four week period under different storage conditions was tested. The specific storage conditions evaluated are set out in Table 1.
# (§2) Samples of each MLA01 salt were stored in inert glass containers with polypropylene twist-off caps. The samples were stored and removed at various time points for testing according to the schedule in Table 2, where X denotes removal of a sample for testing.
# The purity of each sample was tested by HPLC. Purity was measured as area-percent, and the results are set out in Tables 3A to 3C below (where “-” denotes test not performed).
# [2] = Stability of salts of MLA01 on storage: levels of three specific impurities (RRT 0.978, 1.072, 1.099); type: physicochemical
# Protocol: as §1, §2
# The levels of three specific impurities with relative retention times (RRTs) of 0.978, 1.072 and 1.099 were also measured. The impurity with an RRT of 0.978 is the impurity formed by cleavage of the terminal Cys-Pro residues from the MLA01 peptide. The impurity with an RRT of 1.072 is the cysteine sulfinic acid impurity of the MLA01 peptide. The impurity with an RRT of 1.099 is the dimer of the MLA01 peptide. The values are set out in Tables 4A to 4C below (where “<” denotes less than 0.1%).
sequence,measurement,setting,value
CPAVKRDVDLFLT [MLA01 trifluoroacetate] (also: trifluoroacetate salt),purity (HPLC),"[1]; storage 5° C., 2 weeks",95.6 area-percent
same,purity (HPLC),"[1]; storage 5° C., 4 weeks",95.2 area-percent
same,purity (HPLC),"[1]; storage 25° C./60% RH, 2 weeks",94.4 area-percent
same,purity (HPLC),"[1]; storage 25° C./60% RH, 4 weeks",94.5 area-percent
same,purity (HPLC),"[1]; storage 40° C./75% RH, 2 weeks",91.0 area-percent
same,purity (HPLC),"[1]; storage 40° C./75% RH, 4 weeks",89.4 area-percent
same,purity (HPLC),"[1]; storage −20° C., 0 weeks",96.7 area-percent
same,purity (HPLC),"[1]; storage −20° C., 2 weeks",95.9 area-percent
same,purity (HPLC),"[1]; storage −20° C., 4 weeks",95.8 area-percent
same,course of purity over the 4 week test period (in words),[1],degraded at higher temperature/humidity
same,impurity RRT 0.978 (cleavage of the terminal Cys-Pro residues),"[2]; 0 weeks, −20° C.",<0.1%
same,impurity RRT 1.072 (cysteine sulfinic acid impurity),"[2]; 0 weeks, −20° C.",<0.1%
same,impurity RRT 1.099 (dimer of the MLA01 peptide),"[2]; 0 weeks, −20° C.",0.3%
same,impurity RRT 0.978 (cleavage of the terminal Cys-Pro residues),"[2]; 4 weeks, 40° C./75% RH",0.9%
same,impurity RRT 1.072 (cysteine sulfinic acid impurity),"[2]; 4 weeks, 40° C./75% RH",0.2%
same,impurity RRT 1.099 (dimer of the MLA01 peptide),"[2]; 4 weeks, 40° C./75% RH",2.8%
same,impurity RRT 0.978 (cleavage of the terminal Cys-Pro residues),"[2]; 4 weeks, −20° C.",<0.1%
same,impurity RRT 1.072 (cysteine sulfinic acid impurity),"[2]; 4 weeks, −20° C.",<0.1%
same,impurity RRT 1.099 (dimer of the MLA01 peptide),"[2]; 4 weeks, −20° C.",0.6%
CPAVKRDVDLFLT [MLA01 acetate] (also: acetate salt),purity (HPLC),"[1]; storage 5° C., 2 weeks",82.7 area-percent
same,purity (HPLC),"[1]; storage 5° C., 4 weeks",84.2 area-percent
same,purity (HPLC),"[1]; storage 25° C./60% RH, 2 weeks",75.6 area-percent
same,purity (HPLC),"[1]; storage 25° C./60% RH, 4 weeks",67.2 area-percent
same,purity (HPLC),"[1]; storage 40° C./75% RH, 2 weeks",54.0 area-percent
same,purity (HPLC),"[1]; storage 40° C./75% RH, 4 weeks",39.4 area-percent
same,purity (HPLC),"[1]; storage −20° C., 0 weeks",90.6 area-percent
same,purity (HPLC),"[1]; storage −20° C., 2 weeks",84.5 area-percent
same,purity (HPLC),"[1]; storage −20° C., 4 weeks",88.1 area-percent
same,course of purity over the 4 week test period (in words),[1],degraded under all conditions tested
same,impurity RRT 0.978 (cleavage of the terminal Cys-Pro residues),"[2]; 0 weeks, −20° C.",2.0%
same,impurity RRT 1.072 (cysteine sulfinic acid impurity),"[2]; 0 weeks, −20° C.",2.5%
same,impurity RRT 1.099 (dimer of the MLA01 peptide),"[2]; 0 weeks, −20° C.",1.6%
same,impurity RRT 0.978 (cleavage of the terminal Cys-Pro residues),"[2]; 4 weeks, 40° C./75% RH",17.1%
same,impurity RRT 1.072 (cysteine sulfinic acid impurity),"[2]; 4 weeks, 40° C./75% RH",5.9%
same,impurity RRT 1.099 (dimer of the MLA01 peptide),"[2]; 4 weeks, 40° C./75% RH",12.8%
same,impurity RRT 0.978 (cleavage of the terminal Cys-Pro residues),"[2]; 4 weeks, −20° C.",2.3%
same,impurity RRT 1.072 (cysteine sulfinic acid impurity),"[2]; 4 weeks, −20° C.",2.8%
same,impurity RRT 1.099 (dimer of the MLA01 peptide),"[2]; 4 weeks, −20° C.",2.5%
CPAVKRDVDLFLT [MLA01 hydrochloride] (also: hydrochloride salt),stability compared with other salt forms (in words),"[1]; 4 week storage, all conditions tested",more stable than MLA01 acetate or MLA01 trifluoroacetate
same,purity (HPLC),"[1]; storage 5° C., 2 weeks",94.0 area-percent
same,purity (HPLC),"[1]; storage 5° C., 4 weeks",95.7 area-percent
same,purity (HPLC),"[1]; storage 25° C./60% RH, 2 weeks",94.3 area-percent
same,purity (HPLC),"[1]; storage 25° C./60% RH, 4 weeks",95.5 area-percent
same,purity (HPLC),"[1]; storage 40° C./75% RH, 2 weeks",92.4 area-percent
same,purity (HPLC),"[1]; storage 40° C./75% RH, 4 weeks",95.3 area-percent
same,purity (HPLC),"[1]; storage −20° C., 0 weeks",96.6 area-percent
same,purity (HPLC),"[1]; storage −20° C., 2 weeks",94.0 area-percent
same,purity (HPLC),"[1]; storage −20° C., 4 weeks",95.6 area-percent
same,course of purity over the 4 week test period (in words),[1],stayed constant
same,impurity RRT 0.978 (cleavage of the terminal Cys-Pro residues),"[2]; 0 weeks, −20° C.",<0.1%
same,impurity RRT 1.072 (cysteine sulfinic acid impurity),"[2]; 0 weeks, −20° C.",0.1%
same,impurity RRT 1.099 (dimer of the MLA01 peptide),"[2]; 0 weeks, −20° C.",0.34%
same,impurity RRT 0.978 (cleavage of the terminal Cys-Pro residues),"[2]; 4 weeks, 40° C./75% RH",0.2%
same,impurity RRT 1.072 (cysteine sulfinic acid impurity),"[2]; 4 weeks, 40° C./75% RH",0.2%
same,impurity RRT 1.099 (dimer of the MLA01 peptide),"[2]; 4 weeks, 40° C./75% RH",0.6%
same,impurity RRT 0.978 (cleavage of the terminal Cys-Pro residues),"[2]; 4 weeks, −20° C.",0.1%
same,impurity RRT 1.072 (cysteine sulfinic acid impurity),"[2]; 4 weeks, −20° C.",<0.1%
same,impurity RRT 1.099 (dimer of the MLA01 peptide),"[2]; 4 weeks, −20° C.",0.7%
